Experimental data as given in patent US20250043290A1, “RNA SEQUENCES THAT INDUCE FLUORESCENCE OF SMALL MOLECULE FLUOROPHORES, MOLECULAR COMPLEXES, SENSORS, AND METHODS OF USE THEREOF” (CORNELL UNIVERSITY, priority 2021, published 2025).
Numbering of substitutions follows the chain as printed. Entries after “also recorded” stand apart in the source; their conditions may differ.

How the values were obtained:
[1] = On and off rates of aptamer binding to DFHO; details: 50 nM RNA
Experimental: FIGS. 7A-7H provide photophysical and biophysical characterization of Squash. […] Excess RNA was used to ensure binding of nearly all fluorophore. […] Data represent mean values±s.d. for n=3 independent experiments. […] The fluorescence signal trace was fitted with a monoexponential curve to extract kobs. kobs was plotted as a function of total RNA (50 nM RNA) and fluorophore concentration. kon and koff were extracted as the slope and intercept, respectively. Squash koff (0.014±0.008 s^−1) is very similar to that of Corn (0.018±0.002 s^−1). kon for Squash-DFHO (162300±8100 M^−1 s^−1) is seven-times higher than Corn-DFHO (23000±3000 M^−1 s^−1) which could be due to the high folding of Squash. […]
To measure on and off rates of Squash binding to DFHO, the same protocol that was reported previously to measure kinetic rates for Spinach-DFHBI was used (Han et al., “Understanding the Photophysics of the Spinach-DFHBI RNA Aptamer-Fluorogen Complex to Improve Live-Cell RNA Imaging,” J. Am. Chem. Soc. 135:19033-19038 (2013), which is hereby incorporated by reference in its entirety). Briefly, 50 nM RNA was mixed with different amounts of DFHO and binding kinetics was monitored on the fluorimeter as fluorescence signal increases. Each fluorescence signal trace was fitted with a monoexponential curve and the observed rate constant (kobs) was extracted. […]

[2] = Photophysical properties of fluorophores and RNA-fluorophore complexes (Squash study); assay type: physicochemical; details: 10 μM RNA, 1 μM DFHO
Experimental: All RNAs used for in vitro studies (except the initial hits from SELEX and the DE2-6 mutants) were purified using 8% denaturing PAGE (7M urea) and eluted in 0.3 M NaOAc (pH 5.2) overnight. The RNA was ethanol precipitated and quantified using absorbance in a NanoDrop 2000 spectrometer. All in vitro RNA properties were measured in 40 mM HEPES-KOH (pH 7.4), 100 mM KCl, 0.5 mM MgCl2 buffer unless specified.
Absorption, excitation, and emission spectra were measured using conditions where the RNA is in excess and the fluorophore is limiting to ensure that no free fluorophore contributes to the absorbance or fluorescence signal (FIGS. 7A-7D).
All quantum yields were determined by comparing each RNA-fluorophore complex with Broccli-DFHBI-1T or Corn-DFHO. All measurements for quantum yield were taken in the presence of excess RNA (10 μM final) compared to the fluorophores (0.2 μM final) to avoid interference from unbound fluorophore. The integral of the emission spectra for each Squash-fluorophore complex was compared with the corresponding integrals for Broccoli or Corn to calculate the quantum yield.

[3] = Fluorescence activation of DFAME by aptamers in vitro; assay type: biochemical
Experimental: To test whether Beetroot can activate DFHO, the fluorescence emission spectrum of the Beetroot-DFHO complex was measured. In brief, 20 μM Beetroot and 2 μM DFHO were mixed, and the fluorescence emission of the Beetroot-DFHO complex was measured. […] To test whether Beetroot can activate DFHBI-1T, the fluorescence emission spectrum of the Beetroot-DFHBI-1T complex was measured using the same protocol described in FIG. 32A. […] To test whether Beetroot can activate BI, the fluorescence emission spectrum of the Beetroot-BI complex was measured using the same protocol described in FIG. 32A. […] To test whether Corn can activate DFAME, the fluorescence emission spectrum of the Corn-DFAME complex was measured using the same protocol described in FIG. 32A.
The eluted RNAs were then ethanol precipitated, reverse transcribed, PCR amplified and in vitro transcribed to yield the pool for the next SELEX round. The presence of fluorescent RNA species in each pool was assessed by mixing 20 μM RNA and 10 μM DFAME and measuring fluorescence emission of this solution on a fluorometer in comparison with the fluorophore alone. At this point, RNAs were cloned into bacterial expression plasmids for FACS-based screening.
dsDNA encoding the top-performing RNA sequences from the brightest bacterial colonies was PCR amplified from the purified plasmids. […] The resulting RNA was then purified using Zymo RNA concentrator columns and quantified by absorbance using a Thermo Scientific NanoDrop 2000 spectrophotometer. For absorption, excitation and emission spectra measurements, “excess RNA” conditions and limiting amount of fluorophore was used to ensure that no free fluorophore contributes to the absorbance or fluorescence signal. The RNA concentration used for fluorescence and absorbance measurements was 20 μM and 50 μM, respectively, while the dye concentration was 2 μM and 5 μM, respectively. All in vitro RNA properties were measured in 40 mM HEPES pH 7.4, 100 mM KCl, 5 mM MgCl2 buffer, unless specified.

[4] = Fluorescence activation of DFHBI-1T by aptamers in vitro; assay type: biochemical
Excerpt: FIG. 1A is a schematic illustrating the strategy for evolution of the add A-riboswitch aptamer. Indicated are helices P1-P3, junctional strands (J1/2, J2/3, J3/1), kissing loop (gray lines), and adenine interactions with the aptamer (dotted line) (5′-CUUCAUAUAAUCCUAAUGAUAUGGUUUGGGAGUUUCUACCAAGAGCCUUAAACUCUUGAUUAUGAAG-3′ (SEQ ID NO:36)). The chemical structure of adenine and fluorophores are shown. Three regions (Region 1: 5′-UAU AAU-3′ (SEQ ID NO:37)), Region 2: 5′-AGU UUC UAC C-3′ (SEQ ID NO:38); Region 3: 5′-GAU UAU-3′ SEQ ID NO:39), which include J1/2, J2/3, and J3/1 were randomized in both size and sequence resulting in a sprouts/clips library for SELEX. Each nucleotide in the colored regions was replaced using a combination of random stochastic deletion (designated “N”) and random stochastic insertion (designated “n”). FIG. 1B is schematic showing a three dimensional structure of the add A-riboswitch aptamer highlighting the adenine-binding pocket (PDB 1Y26). The mutagenized regions are shown in the same color as FIG. 1A. Adenine is indicated by the arrow. FIG. 1C is a schematic illustrating the evolution of the add A-riboswitch aptamer into Squash, a DFHBI-1T-binding aptamer. The sprouts/clips library was selected for binding to DFHBI-conjugated agarose resulting in aptamer 9-1. Aptamer 9-1 was subjected to two consecutive rounds of directed evolution generating DE2-6. A pair of mutations was introduced in DE2-6 to strengthen the kissing loop interaction resulting in Squash. FIG. 1D is a graph showing fluorescence activation of DFHBI-1T by different aptamer intermediates that led to Squash. The values inside the bars indicate fold-activation of DFHBI-1T fluorescence by the corresponding aptamer. Data represent mean values±s.d. for n=3 independent experiments. […]
(§1) FIG. 6A is a bar graph showing fluorescence activation of DFHO by Squash and its precursors. Fluorescence was measured with 200 nM dye and 10 μM RNA (ex: 495 nm, em: 562 nm, except for Corn; ex: 505 nm, em: 545 nm). […] FIG. 6B is a bar graph showing fluorescence of initial hits after Round 7 of SELEX. In vitro transcribed RNAs from each hit (1 μM final) were mixed with DFHBI-1T (10 μM final) and the fluorescence was measured (ex: 452 nm, em: 503 nm, except for Broccoli; ex: 472 nm, em: 507 nm). […] FIGS. 6C-6D are bar graphs showing fluorescence measurements of the hits with DFHBI-1T after first (FIG. 6C) and second (FIG. 6D) round of directed evolution, measured as in FIG. 6B. […] FIG. 6E is a bar graph showing fluorescence measurements of hits using DFHO after the second round of directed evolution measured as in FIG. 6A. The fluorescence of the hits were normalized against Corn. […] FIG. 6F is a graph showing normalized fluorescence. […] Fluorescence was measured as in FIG. 6A. […]

[5] = Fluorescence activation of DFHO by aptamers in vitro; assay type: biochemical
Excerpt: FIG. 2A is a schematic showing the secondary structure of Squash as predicted by mFOLD (Squash: 5′-GGCUACAAGGUGAGCCCAAUAAUACGGUUUGGGUUAGGAUAGGAAGUAGAGCCGUAAACUCUCUAAGCGGUAGUC-3′ (SEQ ID NO:1)). Squash retained the main structural elements of add A-riboswitch aptamer including a 3-way junction and predicted kissing loop interactions (residues at positions 30, 31, 56, and 57, solid gray line). An additional base pair in the kissing loop between loop L2 and L3 (residues at positions 29 and 58, dotted gray line) improved fluorescence activation. […] Shown are the excitation (Ex) and emission (Em) spectra of Squash bound to DFHBI-1T and DFHO (structures shown in inset). Spectra were measured using 20 μM RNA and 2 μM of the indicated fluorogenic dye. […] Fluorescence activation was measured by incubating 200 nM dye and 10 μM RNA. By using a large excess of RNA compared to the fluorophore, it was ensured that the fluorescence observed is from 200 nM RNA-fluorophore complex. Data represent mean values±s.d. for n=3 independent experiments. The values inside the bars indicate fold activation. AU, arbitrary units. FIG. 2D is a graph showing the dissociation constant (Kd) between Squash and DFHO as measured by titration of 50 nM Squash with increasing concentration of DFHO, and fitted using a one-site saturation model. […] FIG. 2E is a bar graph showing the results of an experiment in which Squash-DFHO fluorescence was measured in buffers containing exclusively the indicated cations. […] Similar to the parental add A-riboswitch aptamer (see Lemay et al., “Folding of the Adenine Riboswitch,” Chem. Biol. 13:857-868 (2006), which is hereby incorporated by reference in its entirety), Squash-DFHO has a low magnesium requirement for fluorescence activation. […]
as §1

Corn: previously reported RNA aptamer that homodimerizes and activates DFHO, SEQ ID NO:103 (CGAGGAAGGAGGUCUGAGGAGGUCACUG; RNA, backbone not given here) [reference compound]
koff [1]: 0.018 ± 0.002 s⁻¹ | Emission maxima with DFHO [2]: 545 nm | Binding and activation of DFAME fluorescence ([3]; 20 μM RNA, 2 μM dye): weakly binds and activates; also recorded: only weakly bind and activate

B1: 9-1: initial SELEX hit from sprouts/clips library, SEQ ID NO: 9 (nucleic acid)
chain: GCCUAGGCUUCAAGGUGGCCCAAUGAUAUGGUUUGGGUUAGGAUAGGAAUAAGAGCCUUAAACUCUUCAAAGCGGAAGUCUAGGC
modifications: listed as RNA, chemistry not given here
Fold activation of DFHBI-1T fluorescence [4]: ~521 fold

B2: DE1-2: brightest aptamer of first directed evolution, SEQ ID NO: 10 (nucleic acid)
chain: GCCUAGGCUUCAAGGUGAGCCCAAUAAUAUGGUUUGGGUUAGGAUAGGAAGAAGAGCCUUAAACUCUCUAAGCGGAAGUCUAGGC
modifications: listed as RNA, chemistry not given here
Fold activation of DFHBI-1T fluorescence [4]: approximately 790 fold

B3: DE2-6: aptamer of second directed evolution, SEQ ID NO: 11 (nucleic acid)
chain: B2 chain with U10A, A52U, A76U
modifications: listed as RNA, chemistry not given here
Fold activation of DFHBI-1T fluorescence [4]: approximately 949 fold | Fold activation of DFHO fluorescence [5]: ~492 fold

B4: 10-1: RNA aptamer from 10 rounds of SELEX that binds DFAME, SEQ ID NO: 95 (nucleic acid)
chain: GCUUCCGUGCGACAUCAUGCGCGCGACUGCUUCGGCAGAGGUGGGUGGUGUGGAGGAGUAUCUG
modifications: RNA, backbone not given here
Fold fluorescence enhancement of DFAME ([3]; in vitro): threefold
